Experimental data from article PMC8313695.

Biological target: p-ERK1/2 (Thr202/Tyr204)
Experiment: co-IP (IP: Flag, IB: p-ERK1/2), band intensity quantified in bar chart
Settings: whole-cell extracts from MCF-7C5RN cells; without CGP57380; parent: est. 0.24; read off a plot

- response: 0.11
Substance: Flag-WTAP (wild type) (from UniProt Q15007) S341A
